Assay results as given in US20220174981A1, “PROLINE TOLERANT TRIPEPTIDYL PEPTIDASES AND USES THEREOF” (DuPont Nutrition Biosciences APS, priority 2014, published 2022).

Experiments:
azocasein = assay: Azocasein assay for endoprotease activity; type: biochemical; details: PepN applied in WPI hydrolysis
Method: (§1) A modified version of the endoprotease assay described by Iversen and Jørgensen, 1995 (Biotechnology Techniques 9, 573-576) is used. An enzyme sample of 50 μl is added to 250 μl of azocasein (0.25% w/v; from Sigma) in 4 times diluted McIlvaine buffer, pH 5 and incubated for 15 min at 40° C. with shaking (800 rpm). The reaction is terminated by adding 50 μl of 2 M trichloroacetic acid (TCA) (from Sigma Aldrich, Denmark) and centrifugation for 5 min at 20,000 g. To a 195 μl sample of the supernatant 65 μl of 1 M NaOH is added and absorbance at 450 nm is measured. One unit of endoprotease activity is defined as the amount which yields an increase in absorbance of 0.1 in 15 min at 40° C. at 450 nm.
as §1, with “Jorgensen,” for “Jørgensen,”, “1995” for “1995 (Biotechnology Techniques 9, 573-576)”, “TCA” for “trichloroacetic acid (TCA) (from Sigma Aldrich, Denmark)”, “C.” for “C. at 450 nm.”
Endopeptidase side-activity was measured with the azocasein as described in Example 2.

sodium caseinate = assay: 5% sodium caseinate hydrolysis with endopeptidase, TRI083 and PepN, serine equivalents; type: biochemical; details: doubling of the PepN activity from 786 to 1572 nkat/mL
H-Ala-Ala-Ala-OH = assay: Pre-hydrolysis of H-Ala-Ala-Ala-OH by PepN, gas chromatography; type: biochemical; details: 24 h, 40° C., pH 4.0
Method: The inhibition experiments were set up as described in Example 14. Furthermore, 1 mg/mL H-Ala-Ala-Ala-OH (Bachem, Switzerland) was subjected to general aminopeptidase (PepN) hydrolysis for 24 h at 40° C. in 12.5 times diluted McIlvaine buffer (pH 4.0). For this, […] H-Ala-Ala-Ala-OH was dissolved in 8 mL 10 times diluted McIlvaine buffer (pH 4.0) and filled up to 10 mL with purified PepN (1,572 nkat/mL [pH 6.5]). After 24 h of hydrolysis, the PepN hydrolysis was terminated by heat inactivation of the PepN (90° C.; 10 min). The degree of pre-hydrolysis of H-Ala-Ala-Ala-OH was determined by gas chromatography (Husek, 1991; FEBS-Letters 280, 354-356). About 0.18 mg/mL alanine was measured, which corresponds to about 54% hydrolyses of the initially applied H-Ala-Ala-Ala-OH.

[1] = tested on: whey protein isolate (WPI); assay: 15% WPI hydrolysis at pH 6, 50° C. with endopeptidases, TRI079 and PepN; type: biochemical; details: 24 h
Method: For WPI hydrolysis, Lacprodan-9224 (Arla Food Ingredients, Denmark) was employed, a 15% (w/w) WPI suspension was prepared in H2Od and adjusted to pH 6 with sodium hydroxide. To prevent microbial growth, 0.0285% (w/w) NaN3 was added. Subsequently, 0.5% (w/w on protein substrate) Food Pro® Alkaline Protease and 0.5% (w/w on protein substrate) Food Pro® PNL was added and a volume of 200 μl of the WPI suspension was transferred into each of the 96 wells of a microtiter plate (MTP; VWR, Denmark). Following this, 5 μl of the proline tolerant tripeptidyl peptidase TRI079 containing either 0 or 2188 nkat/mL and 5 ul of PepN (described in EXAMPLE 10) containing either 0, 197 or 393 nkat/mL were added to the particular wells of the MTP. Then, the MTP was sealed and placed in an incubator at 50° C. (iEMS incubator/shaker HT, Thermo Scientific, Denmark).
After 24 h of incubation and shaking at 400 rpm, the hydrolysis was stopped by addition of 20 μl of 2 M trichloroacetic acid (TCA; Sigma-Aldrich, Denmark), except for the reference (0 h) to which the TCA was added prior to endo- and exopeptidase addition. […] The measured absorptions at 340 nm in a MTP reader (VersaMax, Molecular Devices, Denmark) were transformed into serine equivalents employing a serine calibration curve (0-2 mM).

H-Ala-Pro-pNA = molecular target: T1, H-Ala-Pro-pNA (Lactobacillus helveticus, UniProt Q10730); assay: X-prolyl-dipeptidyl (PepX) side-activity; type: biochemical; details: PepN applied in WPI hydrolysis
T1 construct: His-tag; made in house; host or cells: E. coli
T1 sequence (Q10730 1-844 F39I/L44F/S342A/S372G/S496N/T525I/H527L): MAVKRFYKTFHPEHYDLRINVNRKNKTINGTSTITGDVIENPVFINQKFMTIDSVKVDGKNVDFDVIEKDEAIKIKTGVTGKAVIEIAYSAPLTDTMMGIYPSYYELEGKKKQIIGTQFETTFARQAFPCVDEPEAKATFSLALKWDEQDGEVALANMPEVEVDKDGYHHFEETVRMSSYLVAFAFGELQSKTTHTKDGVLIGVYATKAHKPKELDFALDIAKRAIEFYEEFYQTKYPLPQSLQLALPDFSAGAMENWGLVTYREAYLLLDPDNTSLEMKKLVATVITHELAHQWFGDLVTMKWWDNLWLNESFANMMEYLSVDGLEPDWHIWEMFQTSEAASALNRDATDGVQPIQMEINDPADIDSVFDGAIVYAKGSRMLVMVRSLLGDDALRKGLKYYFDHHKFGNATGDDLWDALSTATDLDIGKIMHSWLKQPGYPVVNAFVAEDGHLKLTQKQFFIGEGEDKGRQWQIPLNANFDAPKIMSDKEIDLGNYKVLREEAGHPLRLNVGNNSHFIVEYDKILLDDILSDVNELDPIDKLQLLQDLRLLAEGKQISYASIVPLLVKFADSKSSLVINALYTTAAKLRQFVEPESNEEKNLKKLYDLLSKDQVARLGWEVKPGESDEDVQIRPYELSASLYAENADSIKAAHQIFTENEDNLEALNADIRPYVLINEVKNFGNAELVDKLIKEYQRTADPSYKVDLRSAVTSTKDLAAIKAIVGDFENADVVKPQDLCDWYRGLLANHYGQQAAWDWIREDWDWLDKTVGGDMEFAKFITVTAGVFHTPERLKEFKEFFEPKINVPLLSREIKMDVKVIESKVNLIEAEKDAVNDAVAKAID

[2] = general aminopeptidase (Pep N) of the named origin; cited from earlier work

B1: PepN: recombinantly in E. coli expressed and His-tag purified general aminopeptidase (PepN) from Lactobacillus helveticus ATCC 12046 (protein, UniProt Q10730 1-844, looked up)
Aminopeptidase N: MAVKRFYKTFHPEHYDLRINVNRKNKTINGTSTITGDVFENPVLINQKFMTIDSVKVDGKNVDFDVIEKDEAIKIKTGVTGKAVIEIAYSAPLTDTMMGIYPSYYELEGKKKQIIGTQFETTFARQAFPCVDEPEAKATFSLALKWDEQDGEVALANMPEVEVDKDGYHHFEETVRMSSYLVAFAFGELQSKTTHTKDGVLIGVYATKAHKPKELDFALDIAKRAIEFYEEFYQTKYPLPQSLQLALPDFSAGAMENWGLVTYREAYLLLDPDNTSLEMKKLVATVITHELAHQWFGDLVTMKWWDNLWLNESFANMMEYLSVDGLEPDWHIWEMFQTSEASSALNRDATDGVQPIQMEINDPADIDSVFDSAIVYAKGSRMLVMVRSLLGDDALRKGLKYYFDHHKFGNATGDDLWDALSTATDLDIGKIMHSWLKQPGYPVVNAFVAEDGHLKLTQKQFFIGEGEDKGRQWQIPLNANFDAPKIMSDKEIDLGSYKVLREEAGHPLRLNVGNNSHFIVEYDKTLHDDILSDVNELDPIDKLQLLQDLRLLAEGKQISYASIVPLLVKFADSKSSLVINALYTTAAKLRQFVEPESNEEKNLKKLYDLLSKDQVARLGWEVKPGESDEDVQIRPYELSASLYAENADSIKAAHQIFTENEDNLEALNADIRPYVLINEVKNFGNAELVDKLIKEYQRTADPSYKVDLRSAVTSTKDLAAIKAIVGDFENADVVKPQDLCDWYRGLLANHYGQQAAWDWIREDWDWLDKTVGGDMEFAKFITVTAGVFHTPERLKEFKEFFEPKINVPLLSREIKMDVKVIESKVNLIEAEKDAVNDAVAKAID
modifications: His-tag
azocasein
  endopeptidase side-activity: free of endopeptidase
Sodium caseinate
  increase of serine equivalents: 10 mM
H-Ala-Ala-Ala-OH; 1 mg/mL H-Ala-Ala-Ala-OH
  alanine measured: About 0.18 mg/mL
H-Ala-Ala-Ala-OH
  hydrolyses of the initially applied H-Ala-Ala-Ala-OH: about 54%
[1]; PepN 197, TRI 079 0 nkat/mL
  DH (in %) of WPI hydrolysate: 18.2%
[1]; PepN 393, TRI 079 0 nkat/mL
  DH (in %) of WPI hydrolysate: 18.8%
H-Ala-Pro-pNA
  X-prolyl-dipeptidyl (PepX) side-activity: free of
[2]
  Substrate Specificity: Ala, Lys, Arg, Leu, Phe, Val, Ile, and Pro
  pH-optimum: 6.5
  temp.-range: 10-50 C.
